Assay results published in patent US8637043B2, “Compositions useful as ligands for the formyl peptide receptor like 1 receptor and methods of use thereof” (Chemocentryx, Inc., priority 2001, dated 2014).
“And” between values parts separate entries of the source, which are not always exact repeats. Equal values may be shown once.

What was measured:
human monocytes [1] = experiment: Calcium flux in human monocytes; format: cell-based
Method: (§1) Ca^2+ mobilization responses were performed using the intracellular ratiometric fluorescent dye, lndo-1. Cells were loaded with Indo-1/AM (3 μM; Molecular Probes, Eugene, Oreg.) in culture medium (45 min, 20° C., 10^7 cells/ml). After dye loading, cells were washed once with 10 ml PBS) and resuspended at 10^6 cell/ml in HBSS containing 1% FBS. Cytosolic [Ca^2+] release was determined using excitation at 350 nm using a Photon Technology International fluorimeter (excitation at 350 nm, ratioed dual emission at 400 and 490 nm).
(§2) The human recombinant chemokines, leukotactin, MlP-1α, three known CKβ8 variants CKβ8(1-99), CKβ8(25-99), CKβ8-1(1-116) and a novel NH2-terminal truncated form of CKβ8-1, CKβ8-1 (25-116) were obtained from R&D Systems (Minneapolis, Minn.). Human monocytes were generated from buffy coats (Stanford Blood Center, Palo Alto, Calif.) following a standard protocol. Briefly, PBMC were isolated by standard density gradient centrifugation (Ficoll-Paque-Plus, Pharmacia). Monocytes were purified using CD14 Microbeads (Miltenyi, Auburn, Calif.) magnetic positive selection. Human neutrophils were isolated from fresh peripheral blood from healthy individuals by gradient centrifugation on Ficoll-Hypaque (Hyclone, Calif.).
The activity of the CCL23 variants was tested on freshly prepared human monocytes and neutrophils using the calcium flux test described in Example 1.
(§3) Human monocytes were either generated from buffy coats (Stanford Blood Center, Palo Also, Calif.) or from fresh blood of healthy individuals following a standard protocol. Briefly, PBMC were isolated by a Ficoll-Paque gradient centrifugation (Ficoll-Paque-Plus, Pharmacia). Monocytes were purified by CD14 Microbeads (Miltenyi) magnetic positive selection. Human neutrophils were isolated from fresh blood by dextran sedimentation and gradient centrifugation Ficoll-Paque gradient centrifugation. All cells were washed and resuspended (1×10^7/ml) in RPMI medium with 10% FBS.
as §1, with “an” for “the”, “Indo-1.” for “lndo-1.”, “Probes (Eugene, Oreg.))” for “Probes, Eugene, Oreg.)”, “cells/mi).” for “cells/ml).”, “(10” for “with 10”

human neutrophils [2] = experiment: Calcium flux in human neutrophils; format: cell-based; settings: human neutrophils
Method: as §1, §2, §3
as §1, with “an” for “the”, “Indo-1.” for “lndo-1.”, “Probes (Eugene, Oreg.))” for “Probes, Eugene, Oreg.)”, “cells/mi).” for “cells/ml).”, “(10” for “with 10”

immature Dendritic Cells = experiment: Calcium mobilization, immature dendritic cells; format: cell-based, human
Method: (§4) Human recombinant CKβ8-1(25-116) chemokine was obtained from R&D Systems (Minneapolis, Minn.). The peptide SHAAGtides SEQ ID NO:1 and SEQ ID NO:6 and a control protein (the reverse sequence of SEQ ID NO:1) were synthesized and HPLC-purified using routine techniques as described in Sambrook et al., 1989, and Ausubel et al., 1999.
(§5) Immature DCs were derived by culturing CD14+ monocytes in the presence of GM-CSF and IL4. Briefly, monocytes were cultured in a T-175 flask at 10^6 cells/ml in RPMI/10% FCS. Recombinant human GM-CSF and IL4 were added on day 0, 2, 4 and 6 to a final concentration of 1000 u/ml and 500 u/ml, respectively. Cells were harvested on day 7 as immature DCs and characterized for surface protein expression by FACS analysis. DC maturation was carried out by culturing day 6 immature DCs in macrophage-conditioned medium (MCM). Briefly, day 6 immature DCs were harvested by centrifugation and resuspended in MCM at 10^6 cells/ml. The medium was supplemented with 1000 u/ml of GM-CSF and 500 u/ml IL4. After three more days of culture, cells were harvested as mature DCs and characterized by surface protein expression flow cytometry.
as §1, with “an” for “the”, “Indo-1.” for “lndo-1.”, “Probes (Eugene, Oreg.))” for “Probes, Eugene, Oreg.)”, “cells/mi).” for “cells/ml).”, “(10” for “with 10”

mature Dendritic Cells = experiment: Calcium mobilization, mature dendritic cells; format: cell-based, human
Method: as §4, §5
MCM was prepared as follows: PBMCs isolated from buffy coat were incubated at 37° C. in a plastic flask pre-coated with 10 mg/ml human IgG (Sigma, St Louis, Mo.) for 30 minutes. After 30 minutes, non-adherent cells were removed and adherent cells were washed three times with DPBS, then cultured in RPMI/10% human serum. Conditioned-medium was collected after 24 hours. TNF-α concentration, which is critical for DC maturation, was determined by using a TNF-α ELISA kit (R&D Systems, Minn.). The final TNF-α level in MCM was adjusted to 50 u/mi by mixing with RPMI/10% human serum, and was stored at −80 freezer until use.
as §1, with “an” for “the”, “Indo-1.” for “lndo-1.”, “Probes (Eugene, Oreg.))” for “Probes, Eugene, Oreg.)”, “cells/mi).” for “cells/ml).”, “(10” for “with 10”

human neutrophils [3] = experiment: Migration assay (ChemoTx), human neutrophils; format: cell-based; settings: 90 min, 100 nM
Method: Migration assays were performed on monocytes and neutrophils. Human monocytes and neutrophils (prepared as in Exampe 2) were harvested and resuspended in chemotaxis medium (CM). The CM consisted of Hank's buffered salt solution (Gibco, Mass.) containing CaCl2 (1 mM) and MgSO4 (1 mM) with added 0.1% BSA (Sigma, St. Louis, Mo.). The assays were performed in 96-well ChemoTx® microplates (Neuroprobe, Mass.). […] After incubation for 90 min (37° C., 100% humidity, 5% CO2), cells were removed from the upper surface of the filter by scraping. Cells that migrated into the lower chamber were quantified using the Quant cell proliferation assay kit (Molecular Probes, Oreg.).
The above peptides were prepared as in previous examples.

monocytes [4] = experiment: Cross-desensitization with leukotactin, monocytes; format: cell-based, human
Method: (§6) In cross-desensitization tests tests, cells were stimulated sequentially with leukotactin and then the chemokines CKβ8(1-99), CKβ8(25-99), CKβ8-1(1-116), and CKβ8-1(25-116). On HEK293-CCR1 transfectants (prepared as in Example 1), leukotactin induced similar patterns of receptor desensitization to all variants.
(§7) Similar receptor cross-desensitization tests were performed using both monocytes and neutrophils (prepared as in Example 2).

neutrophils [5] = experiment: Cross-desensitization with leukotactin, neutrophils; format: cell-based, human
Method: as §6, §7

monocytes [6] = experiment: 125I-MIP-1α binding competition, monocytes; set-up: species or system human; settings: Monocytes
Method: The binding characteristics of CCL23 variants was compared in human CCR1 expressing cells. The ability of MIP-1α and the CCL23 variants CKβ8(1-99), CKβ8(25-99), CKβ8-1(1-116) and CKβ8-1(25-116) to compete with ^125I-MIP-1α binding was investigated in HEK293-CCR1 cells (prepared as in Example 1). The cells were incubated with ^125I-labeled MIP-1α (final conc. {dot over (˜)}0.05 nM) in the presence of unlabeled chemokine (3 hours at 4° C.: 25 mM HEPES, 140 mM NaCl, 1 mM CaCl2, 5 mM MgCl2 and 0.2% BSA, adjusted to pH 7.1). Reactions mixtures were aspirated onto PEI-treated GF/B glass filters using a cell harvester (Packard). The filters were washed twice (25 mM HEPES, 500 mM NaCl, 1 mM CaCl2, 5 mM MgCl2, adjusted to pH 7.1). Scintillant (MicroScint-10; 35 μl) was added to dried filters and the filiters counted in a Packard Topcount scintillation counter. Data were analyzed and plotted using Prism software (GraphPad Software, San Diego, Calif.).
(§8) Simiar binding competition tests were conducted on monocytes and neutrophils. These cells were prepared as in Example 2.

human monocytes [7] = experiment: Migration assay (ChemoTx), human monocytes; format: cell-based; settings: 90 min, 1-100 nM
Method: Migration assays were performed on monocytes and neutrophils. Human monocytes and neutrophils (prepared as in Exampe 2) were harvested and resuspended in chemotaxis medium (CM). The CM consisted of Hank's buffered salt solution (Gibco, Mass.) containing CaCl2 (1 mM) and MgSO4 (1 mM) with added 0.1% BSA (Sigma, St. Louis, Mo.). The assays were performed in 96-well ChemoTx® microplates (Neuroprobe, Mass.). Leukotactin, MlP-1α and chemokines (CKβ8(1-99), CKβ8(25-99), CKβ8-1(1-116) or CKβ8-1(25-116), prepared as in Example 1) were added to the lower wells (final volume 29 μL), and 20 μL of cell suspension (5×10^6 cells/mL for monocytes; 2.5×10^6 cells/mL for neutrophils) added to the polycarbonate filters (5 μm pore size for monocytes; 3 μm pore size for neutrophils). After incubation for 90 min (37° C., 100% humidity, 5% CO2), cells were removed from the upper surface of the filter by scraping. Cells that migrated into the lower chamber were quantified using the Quant cell proliferation assay kit (Molecular Probes, Oreg.).
The chemotactic activity on human monocytes and neutrophils of chemokines: CKβ8(1-99), CKβ8(25-99), CKβ8(1-116) and CKβ8(25-116); W peptides 1 and 2 and the SHAAGtide sequences SEQ ID NO:1 and SEQ ID NO:2 was determined in migration assays. The above peptides were prepared as in previous examples. The migration assays were performed in 96-well CHEMOTX® microplates (Neuroprobe) using the protocol described in Example 5.

CCR1 = target: T1, CCR1 (Homo sapiens, UniProt P32246); experiment: 125I-MIP-1α binding competition, HEK293-CCR1 cells; settings: HEK293-CCR1, 3 hours at 4° C.
T1 construct: full length cDNA encoding CCR1 was cloned by the polymerase chain reaction (PCR) from genomic DNA isolated from human peripheral blood cells; expressed in transfected cells; pcDNA3.1 vector)
T1 sequence (P32246 1-355): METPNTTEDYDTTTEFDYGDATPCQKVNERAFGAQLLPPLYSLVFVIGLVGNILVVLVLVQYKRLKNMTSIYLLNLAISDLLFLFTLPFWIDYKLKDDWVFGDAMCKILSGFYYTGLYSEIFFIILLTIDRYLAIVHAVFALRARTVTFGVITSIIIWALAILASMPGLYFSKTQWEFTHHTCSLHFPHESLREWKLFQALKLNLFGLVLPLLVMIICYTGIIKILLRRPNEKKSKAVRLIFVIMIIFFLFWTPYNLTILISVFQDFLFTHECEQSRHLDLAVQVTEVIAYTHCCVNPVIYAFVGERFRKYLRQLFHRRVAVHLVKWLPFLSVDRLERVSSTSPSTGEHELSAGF
Method: The binding characteristics of CCL23 variants was compared in human CCR1 expressing cells. […] Reactions mixtures were aspirated onto PEI-treated GF/B glass filters using a cell harvester (Packard). The filters were washed twice (25 mM HEPES, 500 mM NaCl, 1 mM CaCl2, 5 mM MgCl2, adjusted to pH 7.1). Scintillant (MicroScint-10; 35 μl) was added to dried filters and the filiters counted in a Packard Topcount scintillation counter. Data were analyzed and plotted using Prism software (GraphPad Software, San Diego, Calif.).

neutrophils [8] = experiment: MIP-1α binding, neutrophils; set-up: species or system human
Method: as §8

“Gly Ala Ala His Ser Leu Thr Met Gin Pro Gly lie Lys Arg Arg Trp Leu Met (GAAHSLTMQPGIKRRWLM) [Control peptide (SEQ ID NO: 33), reference compound]” was tested, and the calcium flux (human monocytes [1]; human monocytes, Example 8) was “No significant calcium flux”, the calcium flux (human neutrophils [2]; Example 8) was “No significant calcium flux” and the calcium flux (immature Dendritic Cells) was “No significant calcium flux”. The calcium flux (mature Dendritic Cells) was “No significant calcium flux”.

B1: leukotactin: human recombinant chemokine, CCR1 agonist (protein, listed as Homo sapiens)
chain: SFHFAADCCTSYISQSIPCSLMKSYFETSSECSKPGVIFLTKKGRQVCAKPSGPGVQDCMKKLKPYSI
With B1 the calcium flux (human neutrophils [2]; 100 nM) was “induced a calcium flux” and the migration of neutrophils (human neutrophils [3]) was “none of the known CCR1 ligands including leukotactin and MlP-1α was active”.

B2: CKβ8(1-99): known CKβ8 (CCL23) variant, human recombinant chemokine from R&D Systems (protein, listed as Homo sapiens)
chain: RVTKDAETEFMMSKLPLENPVLLDRFHATSADCCISYTPRSIPCSLLESYFETNSECSKPGVIFLTKKGRRFCANPSDKQVQVCMRMLKLDTRIKTRKN
In the case of B2, the calcium release (human monocytes [1]; freshly prepared human monocytes, up to 250 nM) is reported as “poor activity”, the calcium flux (human neutrophils [2]; 100 nM) is reported as “neither MlP-1α nor CKβ8(1-99), CKβ8(25-99) or CKβ8(1-116) induced a calcium flux” and the “desensitization by leukotactin prestimulation” value (monocytes [4]) is reported as “completely desensitized”. For the same molecule, the “desensitization by leukotactin prestimulation” value (neutrophils [5]) was “inactive”, the IC50 (monocytes [6]) was 10 nM and 10.3 nM and the migration of monocytes (human monocytes [7]) was “moderate activity”.

B3: MIP-1α: macrophage inflammatory protein, human recombinant chemokine, CCR1 ligand (protein, listed as Homo sapiens)
chain: SLAADTPTACCFSYTSRQIPQNFIADYFETSSQCSKPGVIFLTKRSRQVCADPSEEWVQKYVSDLE
With B3 the calcium flux (human neutrophils [2]; 100 nM) was “neither MlP-1α nor CKβ8(1-99), CKβ8(25-99) or CKβ8(1-116) induced a calcium flux”, the IC50 (CCR1) was 0.54 nM and the IC50 (monocytes [6]) was 0.27 nM. For the same molecule, the “MIP-1α binding to neutrophils” value (neutrophils [8]) was “does not bind neutrophils” and the migration of neutrophils (human neutrophils [3]) was “none of the known CCR1 ligands including leukotactin and MlP-1α was active”.
